{
  "source": "patent US20180036445A1",
  "key": {"[1]": {"target": "Fab/Mab (sample loaded in Example 3)", "test": "10% breakthrough dynamic binding capacity, MabSelect Xtra column, after 24 h in 0.1 M peracetic acid"}, "[2]": {"target": "Fab/Mab (sample loaded in Example 3)", "test": "10% breakthrough dynamic binding capacity, MabSelect column, after 24 h in 0.1 M peracetic acid"}, "[3]": {"target": "Fab/Mab (sample loaded in Example 3)", "test": "difference of dynamic binding capacity, after SIP minus control without SIP, MabSelect"}, "[4]": {"target": "Fab/Mab (sample loaded in Example 3)", "test": "difference of dynamic binding capacity, after SIP minus control without SIP, MabSelect Xtra"}, "[5]": {"target": "Fab/Mab (sample loaded in Example 3)", "test": "10% breakthrough dynamic binding capacity, MabSelect Xtra column, residence time 6 min, no SIP"}, "[6]": {"target": "Fab/Mab (sample loaded in Example 3)", "test": "10% breakthrough dynamic binding capacity, MabSelect column, residence time 6 min, no SIP"}, "[7]": {"target": "Fab/Mab (sample loaded in Example 3)", "test": "10% breakthrough dynamic binding capacity, ligand on agarose column, after 24 h in 0.1 M peracetic acid (ligand degraded by the treatment)"}, "[8]": {"target": "Fab/Mab (sample loaded in Example 3)", "test": "difference of dynamic binding capacity, after SIP minus control without SIP"}, "[9]": {"target": "Fab/Mab (sample loaded in Example 3)", "test": "10% breakthrough dynamic binding capacity, ligand on agarose column, residence time 6 min, no SIP"}, "[10]": {"target": "Fab/Mab (sample loaded in Example 3)", "test": "10% breakthrough dynamic binding capacity, ligand on agarose column, after 24 h in 0.1 M peracetic acid"}, "[11]": {"target": "Fab (sample of Example 4)", "test": "static binding capacity in filter plate, after 4 h in 5% H2O2, 90 min incubation with Fab, relative to PBS control"}, "[12]": {"target": "Fab (sample of Example 4)", "test": "static binding capacity in filter plate, after 24 h in 5% H2O2, 10 min incubation with Fab, relative to PBS control"}, "[13]": {"target": "Fab (sample of Example 4)", "test": "static binding capacity in filter plate, after 4 h in 500 mM peracetic acid, 90 min incubation with Fab, relative to PBS control"}, "[14]": {"target": "Fab (sample of Example 4)", "test": "static binding capacity in filter plate, after 24 h in 100 mM peracetic acid, 10 min incubation with Fab, relative to PBS control"}, "[15]": {"target": "Fab (sample of Example 4)", "test": "static binding capacity in filter plate, after 4 h in 100 mM peracetic acid, 10 min incubation with Fab, relative to PBS control"}, "[16]": {"target": "Fab (sample of Example 4)", "test": "static binding capacity in filter plate, after 4 h in 100 mM peracetic acid, 90 min incubation with Fab, relative to PBS control"}, "[17]": {"target": "Fab (sample of Example 4)", "test": "static binding capacity in filter plate, after 24 h in 500 mM peracetic acid, 90 min incubation with Fab, relative to PBS control"}, "[18]": {"target": "Fab (sample of Example 4)", "test": "static binding capacity in filter plate, after 24 h in 500 mM peracetic acid, 10 min incubation with Fab, relative to PBS control"}},
  "data": [
    {"substance": "recombinant Protein A (rPrA) (from UniProt P38507 42-327)", "values": [
      {"measurement": "DBC after SIP", "setting": "[1]", "result": 60, "unit": "g/L"},
      {"measurement": "DBC after SIP", "setting": "[2]", "result": 51, "unit": "g/L"},
      {"measurement": "ΔDBC", "setting": "[3]", "result": -1, "unit": "g/L"},
      {"measurement": "ΔDBC", "setting": "[4]", "result": 1, "unit": "g/L"},
      {"measurement": "DBC control, no SIP", "setting": "[5]", "result": 59, "unit": "g/L"},
      {"measurement": "DBC control, no SIP", "setting": "[6]", "result": 52, "unit": "g/L"}
    ]},
    {"substance": "single-chain camelid antibody against IgG kappa chains (KappaSelect ligand) (VHH)", "values": [
      {"measurement": "DBC after SIP", "setting": "[7]", "result": 0, "unit": "g/L"},
      {"measurement": "ΔDBC", "setting": "[8]", "result": -20, "unit": "g/L"},
      {"measurement": "DBC control, no SIP", "setting": "[9]", "result": 20, "unit": "g/L"}
    ]},
    {"substance": "MabSelect SuRe LX ligand (multimer of Protein Z variant with substituted asparagines) (designed binder)", "values": [
      {"measurement": "DBC after SIP", "setting": "[10]", "result": 63, "unit": "g/L"},
      {"measurement": "ΔDBC", "setting": "[8]", "result": 0, "unit": "g/L"},
      {"measurement": "DBC control, no SIP", "setting": "[9]", "result": 63, "unit": "g/L"}
    ]},
    {"substance": "recombinant Protein L (rPrL)", "values": [
      {"measurement": "Relative remaining SBC (%)", "setting": "[11]", "result": 102, "unit": "%"},
      {"measurement": "DBC after SIP", "setting": "[10]", "result": 29, "unit": "g/L"},
      {"measurement": "Relative remaining SBC (%)", "setting": "[12]", "result": 102, "unit": "%"},
      {"measurement": "Relative remaining SBC (%)", "setting": "[13]", "result": 103, "unit": "%"},
      {"measurement": "Relative remaining SBC (%)", "setting": "[14]", "result": 107, "unit": "%"},
      {"measurement": "Relative remaining SBC (%)", "setting": "[15]", "result": 109, "unit": "%"},
      {"measurement": "Relative remaining SBC (%)", "setting": "[16]", "result": 101, "unit": "%"},
      {"measurement": "Relative remaining SBC (%)", "setting": "[17]", "result": 102, "unit": "%"},
      {"measurement": "ΔDBC", "setting": "[8]", "result": -1, "unit": "g/L"},
      {"measurement": "DBC control, no SIP", "setting": "[9]", "result": 30, "unit": "g/L"},
      {"measurement": "Relative remaining SBC (%)", "setting": "[18]", "result": 97, "unit": "%"}
    ]},
    {"substance": "MabSelect SuRe ligand (multimer of Protein Z variant with substituted asparagines) (designed binder)", "values": [
      {"measurement": "DBC after SIP", "setting": "[10]", "result": 51, "unit": "g/L"},
      {"measurement": "ΔDBC", "setting": "[8]", "result": 1, "unit": "g/L"},
      {"measurement": "DBC control, no SIP", "setting": "[9]", "result": 50, "unit": "g/L"}
    ]}
  ]
}
